The star is where a group is joined. Biotin = O=C1N[C@H]2[C@H](CS[C@H]2CCCCC(=O)*)N1; Ttds = NCCCOCCOCCOCCCNC(=O)CCC(=O)*
Assays:
[1] = molecular target: bovine serum albumin (BSA) (bovine, UniProt P02769 25-607); assay: pulldown with biotinylated peptide on streptavidin beads, neutral pH, coomassie
Method: (§1) The total incubation volume was 250 μl (50 mM NaPhosphate buffer, 150 mM NaCl, pH7). ‘High Capacity Streptavidin Beads’ (Thermo Fisher Scientific, Waltham, USA) were blocked with 1% BSA solution and equilibrated with the NaPhosphate buffer. For each pulldown 50 μl of beads were utilized and incubated with 200 μl enzyme/peptide mixture for 30 min. at room temperature. The remaining 50 μl of the enzyme/peptide samples were prepared for SDS-PAGE (INPUT fraction). After incubation of the beads with the enzyme/peptide mixture the samples were centrifuged for 1 min. at 1,500×g at 4° C. The supernatant was removed and stored at 4° C. (UNBOUND fraction). Subsequently, the beads were washed three times with NaPhosphate buffer followed by centrifugation at 4,000 rpm at room temperature. […] After destaining the gels were scanned.

[2] = molecular target: T1, recombinant human α-mannosidase (LAMAN) (human, UniProt O00754 50-1011, limits assumed); assay: as above
T1 sequence (looked up): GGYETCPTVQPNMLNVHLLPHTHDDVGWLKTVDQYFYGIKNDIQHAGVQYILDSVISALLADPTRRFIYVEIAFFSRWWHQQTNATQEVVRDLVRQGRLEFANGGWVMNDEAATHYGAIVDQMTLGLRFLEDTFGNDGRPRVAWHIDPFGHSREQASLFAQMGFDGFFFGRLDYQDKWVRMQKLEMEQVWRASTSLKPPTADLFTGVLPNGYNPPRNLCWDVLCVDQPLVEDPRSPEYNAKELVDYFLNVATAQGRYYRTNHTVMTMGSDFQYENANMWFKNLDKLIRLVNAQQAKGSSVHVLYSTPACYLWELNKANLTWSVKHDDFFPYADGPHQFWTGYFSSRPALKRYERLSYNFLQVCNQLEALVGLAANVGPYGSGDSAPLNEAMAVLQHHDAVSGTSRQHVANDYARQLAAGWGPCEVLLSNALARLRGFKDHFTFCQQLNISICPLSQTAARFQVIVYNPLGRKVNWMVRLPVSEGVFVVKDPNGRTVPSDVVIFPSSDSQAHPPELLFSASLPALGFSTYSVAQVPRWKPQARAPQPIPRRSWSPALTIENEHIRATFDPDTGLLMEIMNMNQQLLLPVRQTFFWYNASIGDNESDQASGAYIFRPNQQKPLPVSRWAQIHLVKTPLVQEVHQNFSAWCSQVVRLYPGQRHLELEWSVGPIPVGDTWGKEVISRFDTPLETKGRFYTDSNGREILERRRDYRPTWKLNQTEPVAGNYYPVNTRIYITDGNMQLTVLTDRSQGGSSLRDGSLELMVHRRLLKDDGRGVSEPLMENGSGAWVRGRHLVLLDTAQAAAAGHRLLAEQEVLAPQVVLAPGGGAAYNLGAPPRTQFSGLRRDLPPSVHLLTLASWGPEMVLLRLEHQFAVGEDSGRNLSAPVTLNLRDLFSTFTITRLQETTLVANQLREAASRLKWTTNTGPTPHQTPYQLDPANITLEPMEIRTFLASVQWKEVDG
Method: as §1

Chain of bovine serum albumin (BSA) (P02769 25-607 limits assumed): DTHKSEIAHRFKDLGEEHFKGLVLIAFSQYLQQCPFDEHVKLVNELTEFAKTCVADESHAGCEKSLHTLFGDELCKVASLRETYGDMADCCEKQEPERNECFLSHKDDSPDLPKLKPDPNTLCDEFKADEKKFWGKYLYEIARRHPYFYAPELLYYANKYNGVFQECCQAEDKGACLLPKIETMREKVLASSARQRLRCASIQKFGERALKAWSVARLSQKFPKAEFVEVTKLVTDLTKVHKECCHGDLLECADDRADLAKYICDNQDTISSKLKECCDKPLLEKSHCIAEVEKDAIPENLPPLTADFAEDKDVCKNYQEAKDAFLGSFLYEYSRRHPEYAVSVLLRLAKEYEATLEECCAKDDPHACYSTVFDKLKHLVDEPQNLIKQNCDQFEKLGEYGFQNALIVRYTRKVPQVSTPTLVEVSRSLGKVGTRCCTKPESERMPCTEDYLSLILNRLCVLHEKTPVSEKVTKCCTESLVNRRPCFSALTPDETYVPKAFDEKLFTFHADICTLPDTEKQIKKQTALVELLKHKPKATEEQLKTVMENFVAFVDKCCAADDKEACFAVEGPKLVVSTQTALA

binding result [1]: no binding
binding result [2]: no binding
B1: Helix 5 peptide (LIMP-2-derived, L152-E175) (peptide)
peptide: {Biotin-Ttds}-LREIIEAMLKAYQQKLFVTHTVDE-OH
notes: Synthetic peptide from jpt Peptide Technologies; also called wild-type helix 5 peptide; LIMP-2-derived helix 5 peptide

— US20170258870A1 (NORTHWESTERN UNIVERSITY, published 2017)
